Assay [1] deals with Photosystem I (PSI) of Chroococcidiopsis sp. PCC 6712 (Chroococcidiopsis sp. PCC 6712 (endogenous)). Briefly: transmission electron microscopy with single particle analysis.
The target is the same in assay [2]. Briefly: native gel or EMSA.
Assay [3] deals with Photosystem I (PSI) of Chroococcidiopsis sp. PCC 7434 (Chroococcidiopsis sp. PCC 7434 (endogenous)). Briefly: native gel or EMSA.
Assay [4] concerns the target Photosystem I (PSI) of Chroococcidiopsis sp. TS-821 (Chroococcidiopsis sp. TS-821 (endogenous)). Briefly: sucrose density gradient ultracentrifugation.
For assay [5] the target is unchanged. Briefly: native gel or EMSA.
Assay [6] shares this target. Briefly: native gel or EMSA. The source holds these as a separate data set.
Assay [7] has as its target Photosystem I (PSI) of Chroococcidiopsis thermalis PCC 7203 (Chroococcidiopsis thermalis PCC 7203 (endogenous)). Briefly: native gel or EMSA.
Assay [8] has as its target Photosystem I (PSI) of Fischerella muscicola PCC 7414 (Fischerella muscicola PCC 7414 (endogenous)). Briefly: transmission electron microscopy with single particle analysis.
Assay [9] shares this target. Briefly: native gel or EMSA.
Assay [10] has the same target. Briefly: native gel or EMSA. The source holds these as a separate data set.
Assay [11] has as its target Photosystem I (PSI) of Gloeocapsa sp. PCC 7428 (Gloeocapsa sp. PCC 7428 (endogenous)). Briefly: native gel or EMSA.
For assay [12] the target is unchanged. Briefly: native gel or EMSA. This is another data set of the same source.
For assay [13], the target named is Photosystem I (PSI) of Leptolyngbya sp. PCC 7124 (Leptolyngbya sp. PCC 7124 (endogenous)). Briefly: native gel or EMSA.
Assay [14] addresses Photosystem I (PSI) of Microcystis sp. PCC 7806 (Microcystis sp. PCC 7806 (endogenous)). Briefly: native gel or EMSA.
The target in assay [15] is Photosystem I (PSI) of Nodularia PCC 73104 (Nodularia PCC 73104 (endogenous)). Briefly: native gel or EMSA.
In assay [16] the target is Photosystem I (PSI) of Nostoc sp. PCC 7120 (Nostoc sp. PCC 7120 (endogenous)). Briefly: native gel or EMSA.
In assay [17] the target is Photosystem I (PSI) of Nostoc sp. PCC 9335 (Nostoc sp. PCC 9335 (endogenous)). Briefly: native gel or EMSA.
Assay [18] has as its target Photosystem I (PSI) of Planktothrix paucivesiculata PCC 8926 (Planktothrix paucivesiculata PCC 8926 (endogenous)). Briefly: native gel or EMSA.
Assay [19] addresses Photosystem I (PSI) of Pseudanabaena sp. B SP48 (Pseudanabaena sp. B SP48 (endogenous)). Briefly: native gel or EMSA.
Assay [20] deals with Photosystem I (PSI) of Synechocystis sp. PCC 6803, wild type (Synechocystis sp. PCC 6803 (endogenous)) (UniProt P37277). Briefly: native gel or EMSA.
For assay [21], the target named is Photosystem I (PSI) of Synechocystis sp. PCC 7509 (Synechocystis sp. PCC 7509 (endogenous)). Briefly: native gel or EMSA.
Assay [22] addresses Photosystem I (PSI) of Thermosynechococcus elongatus BP-1 (Thermosynechococcus elongatus BP-1 (endogenous)). Briefly: native gel or EMSA.

This note sets out measurements from paper doi:10.1101/544353.

Where “and” joins values, the source holds several entries; their conditions need not be identical. Identical values can stand only once. Like-named read-outs stand apart in the source and are kept apart here.

For “Photosystem I (PSI) of Chroococcidiopsis sp. PCC 6712 (complex)”, the stoichiometry N in assay [1] and in assay [2] was 3 in each case.

For “Photosystem I (PSI) of Chroococcidiopsis sp. PCC 7434 (complex)”, in assay [3], the stoichiometry N was found to be 2.

As for “Photosystem I (PSI) of Chroococcidiopsis sp. TS-821 (complex)”, the stoichiometry N in assay [4] was 2; in assay [5], 4 and 2; in assay [6], 3.

In turn, “Photosystem I (PSI) of Chroococcidiopsis thermalis PCC 7203 (complex)” came in with a stoichiometry N in assay [7] of 2.

With “Photosystem I (PSI) of Fischerella muscicola PCC 7414 (complex)”, the stoichiometry N in assay [8] was found to be 4; in assay [9] it was 4; in [10], 3.

For “Photosystem I (PSI) of Gloeocapsa sp. PCC 7428 (complex)”, the stoichiometry N in assay [11] was 4 and 2; in assay [12] it was 3.

With “Photosystem I (PSI) of Leptolyngbya sp. PCC 7124 (complex)”, in assay [13], the stoichiometry N is 2.

Turning to “Photosystem I (PSI) of Microcystis sp. PCC 7806 (complex)”, the stoichiometry N in assay [14] was 2 and 3.

In turn, “Photosystem I (PSI) of Nodularia PCC 73104 (complex)” returned a stoichiometry N in assay [15] of 4.

“Photosystem I (PSI) of Nostoc sp. PCC 7120 (complex)”: the stoichiometry N in [16] was determined as 4.

Turning to “Photosystem I (PSI) of Nostoc sp. PCC 9335 (complex)”, in assay [17], the stoichiometry N is 3 and 2.

“Photosystem I (PSI) of Planktothrix paucivesiculata PCC 8926 (complex)” yielded a stoichiometry N in assay [18] of 3.

In assay [19], “Photosystem I (PSI) of Pseudanabaena sp. B SP48 (complex)” came in with a stoichiometry N of 3.

As to “Photosystem I (PSI) of Synechocystis sp. PCC 6803, wild type (from UniProt P37277 1-157) (complex)”, the stoichiometry N in assay [20] came to 3.

As for “Photosystem I (PSI) of Synechocystis sp. PCC 7509 (complex)”, in assay [21], the stoichiometry N was 4 and 2.

“Photosystem I (PSI) of Thermosynechococcus elongatus BP-1 (complex)”: the stoichiometry N in assay [22] was found to be 3.
